The text below walks through data of PMC3145792.

For this assay, the target named is SECRET domain (smallpox virus-encoded chemokine receptor domain) of the vTNFR CrmD encoded by ectrom (ectromelia virus). In words: crystal structure.

In the case of “chemokine domain of human CX3CL1 (residues 1-76) (from UniProt P78423 25-100) (domain or fragment)”, the stoichiometry N amounted to 1.
